Source: US20140087995A1 (published 2014)
Numbered stars: 1 amine (or outer) side, 2 acyl side, 3 side chain; on linkers, the order of the positions; unused ones are H or OH. Bridge positions count the residues as written; N and C are the ends. Side chains are listed from the residue outwards. Ends that are not written are not given here. * marks the point of attachment. C20 diacid = O=C(O)CCCCCCCCCCCCCCCCCCC(=O)*; γGlu = O=C(O)[C@H](CCC(=O)[*:2])N[*:1]

T1: human amylin receptor (amylin 3(a) receptor: human calcitonin receptor plus RAMP-3) (human, UniProt P30988 25-474; O60896 24-148, limits assumed)
T1 sequence (looked up) 1: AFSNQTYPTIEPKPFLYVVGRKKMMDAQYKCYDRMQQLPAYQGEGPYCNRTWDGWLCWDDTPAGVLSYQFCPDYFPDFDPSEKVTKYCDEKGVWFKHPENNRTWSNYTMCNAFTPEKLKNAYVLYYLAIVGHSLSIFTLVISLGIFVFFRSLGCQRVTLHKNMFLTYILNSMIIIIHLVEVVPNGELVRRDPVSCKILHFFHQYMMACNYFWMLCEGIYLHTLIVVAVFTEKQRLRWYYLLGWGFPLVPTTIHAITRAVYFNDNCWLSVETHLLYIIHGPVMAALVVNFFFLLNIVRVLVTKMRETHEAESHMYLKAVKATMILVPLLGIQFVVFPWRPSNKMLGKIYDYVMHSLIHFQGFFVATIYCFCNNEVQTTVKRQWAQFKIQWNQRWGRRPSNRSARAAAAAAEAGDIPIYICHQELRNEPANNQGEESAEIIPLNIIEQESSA
T1 sequence (looked up) 2: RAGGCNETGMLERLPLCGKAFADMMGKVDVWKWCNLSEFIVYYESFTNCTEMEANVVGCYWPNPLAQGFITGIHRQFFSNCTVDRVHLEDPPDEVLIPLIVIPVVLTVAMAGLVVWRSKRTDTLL

T2: human calcitonin receptor (human, UniProt P30988 25-474)
T2 sequence (looked up): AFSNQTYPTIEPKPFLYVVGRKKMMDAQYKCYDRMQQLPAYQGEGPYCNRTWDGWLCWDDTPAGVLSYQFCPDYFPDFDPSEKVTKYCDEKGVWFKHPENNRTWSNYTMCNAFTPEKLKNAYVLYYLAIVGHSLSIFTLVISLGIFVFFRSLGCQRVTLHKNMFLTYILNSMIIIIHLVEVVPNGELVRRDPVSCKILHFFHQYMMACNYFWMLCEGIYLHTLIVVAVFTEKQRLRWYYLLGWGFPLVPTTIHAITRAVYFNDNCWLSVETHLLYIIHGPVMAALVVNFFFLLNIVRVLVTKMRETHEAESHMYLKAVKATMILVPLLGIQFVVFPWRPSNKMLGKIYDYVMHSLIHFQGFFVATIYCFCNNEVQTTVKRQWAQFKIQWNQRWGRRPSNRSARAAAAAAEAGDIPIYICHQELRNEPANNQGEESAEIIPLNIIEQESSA


How the values were obtained:
[1] = target: T1, human amylin receptor (amylin 3(a) …); assay: cell-based or functional assay
[2] = target: T2, human calcitonin receptor; assay: cell-based or functional assay
[3] = target: T1, human amylin receptor (amylin 3(a) …); assay: SPA competition binding, membranes of Amylin 3(a)/CRE-luc BHK cells, displacement of 125I-rat amylin (Assay V)
Method: The binding assay was performed using scintillation proximity assay (SPA) beads (RPNQ0001) from PerkinElmer and cell membranes from the Amylin 3(a)/CRE-luc cells (as described in Assay (II)) were used. Membranes were prepared in the following way; the cells were rinsed with PBS and incubated with Versene for approximately 5 min before harvesting. The cells were flushed with PBS and the cell-suspension was centrifuged for 5 min at 1000 rpm. Cells were homogenized (ultrathurrax) in a buffer containing 20 mM Na-HEPES and 10 mM EDTA (pH 7.4) and centrifuged at 20.000 rpm for 15 min. The resulting pellet was resuspended, homogenized and centrifuged (20.000 rpm, 15 min) in a buffer containing 20 mM Na-HEPES and 0.1 mM EDTA (pH 7.4, buffer 2). The resulting pellet was resuspended in buffer 2 and protein concentration was measured (BCA protein Assay, Pierce). The homogenate was kept cold during the whole procedure. The membranes were kept at −80° C. until use. The assay was performed in a 384 well Optiplate (PerkinElmer) in a total volume of 40 ul. Membranes were mixed with SPA beads. Final concentration of membranes 35 ng/μL final and SPA beads was 0.05 mg/well. Test-compounds were dissolved in DMSO and further diluted in assay buffer (50 mM Hepes, pH 7.4, 1 mM CaCl2, 5 mM MgCl₂, 0.1% OA and 0.02% Tween20). […] The final mixture was incubated with shaking at 400 rpm for 120 min at 25° C. prior to centrifugation (1500 rpm, 10 min). Samples were analyzed on TopCounter™ (Packard). The IC₅₀ was calculated using (one site binding competition analysis) GraphPad Prism5 as a measure of receptor affinity.

| Binder | hAmylin-R funct. EC50 [1] [pM] | Ratio hCT/hAmylin funct. (hCTR EC50 against hAmylin-R EC50) [2] | hCTR funct. EC50 [2] [pM] | IC50 [3] [pM] |
| --- | --- | --- | --- | --- |
| {C20 diacid-γGlu}-KCNTATCATQRLAEFLRHSSPNFGAIPSSTNVGPNTY-NH2 (disulfide 2-7; SMILES CC[C@H](C)[C@H](NC(=O)[C@H](C)NC(=O)CNC(=O)[C@H](Cc1ccccc1)NC(=O)[C@H](CC(N)=O)NC(=O)[C@@H]1CCCN1C(=O)[C@H](CO)NC(=O)[C@H](CO)NC(=O)[C@H](Cc1c[nH]cn1)NC(=O)[C@H](CCCNC(=N)N)NC(=O)[C@H](CC(C)C)NC(=O)[C@H](Cc1ccccc1)NC(=O)[C@H](CCC(=O)O)NC(=O)[C@H](C)NC(=O)[C@H](CC(C)C)NC(=O)[C@H](CCCNC(=N)N)NC(=O)[C@H](CCC(N)=O)NC(=O)[C@@H](NC(=O)[C@H](C)NC(=O)[C@@H]1CSSC[C@H](NC(=O)[C@H](CCCCN)NC(=O)CC[C@H](NC(=O)CCCCCCCCCCCCCCCCCCC(=O)O)C(=O)O)C(=O)N[C@@H](CC(N)=O)C(=O)N[C@@H]([C@@H](C)O)C(=O)N[C@@H](C)C(=O)N[C@@H]([C@@H](C)O)C(=O)N1)[C@@H](C)O)C(=O)N1CCC[C@H]1C(=O)N[C@@H](CO)C(=O)N[C@@H](CO)C(=O)N[C@H](C(=O)N[C@@H](CC(N)=O)C(=O)N[C@H](C(=O)NCC(=O)N1CCC[C@H]1C(=O)N[C@@H](CC(N)=O)C(=O)N[C@H](C(=O)N[C@@H](Cc1ccc(O)cc1)C(N)=O)[C@@H](C)O)C(C)C)[C@@H](C)O, also called compound 32) | 50 | 6.6 | 327 | 100 |
| {C20 diacid-γGlu}-KCNTATCATQRLAEFLRHSSPNFGAIPSSTNVGSNTP-NH2 (disulfide 2-7; SMILES CC[C@H](C)[C@H](NC(=O)[C@H](C)NC(=O)CNC(=O)[C@H](Cc1ccccc1)NC(=O)[C@H](CC(N)=O)NC(=O)[C@@H]1CCCN1C(=O)[C@H](CO)NC(=O)[C@H](CO)NC(=O)[C@H](Cc1c[nH]cn1)NC(=O)[C@H](CCCNC(=N)N)NC(=O)[C@H](CC(C)C)NC(=O)[C@H](Cc1ccccc1)NC(=O)[C@H](CCC(=O)O)NC(=O)[C@H](C)NC(=O)[C@H](CC(C)C)NC(=O)[C@H](CCCNC(=N)N)NC(=O)[C@H](CCC(N)=O)NC(=O)[C@@H](NC(=O)[C@H](C)NC(=O)[C@@H]1CSSC[C@H](NC(=O)[C@H](CCCCN)NC(=O)CC[C@H](NC(=O)CCCCCCCCCCCCCCCCCCC(=O)O)C(=O)O)C(=O)N[C@@H](CC(N)=O)C(=O)N[C@@H]([C@@H](C)O)C(=O)N[C@@H](C)C(=O)N[C@@H]([C@@H](C)O)C(=O)N1)[C@@H](C)O)C(=O)N1CCC[C@H]1C(=O)N[C@@H](CO)C(=O)N[C@@H](CO)C(=O)N[C@H](C(=O)N[C@@H](CC(N)=O)C(=O)N[C@H](C(=O)NCC(=O)N[C@@H](CO)C(=O)N[C@@H](CC(N)=O)C(=O)N[C@H](C(=O)N1CCC[C@H]1C(N)=O)[C@@H](C)O)C(C)C)[C@@H](C)O, also called compound 8) | 82 | 1.1 | 87 | 72 |
| {C20 diacid-γGlu-γGlu}-KCNTATCATQRLAEFLRHSSPNFGAIPSSTNVGSNTP-NH2 (disulfide 2-7; SMILES CC[C@H](C)[C@H](NC(=O)[C@H](C)NC(=O)CNC(=O)[C@H](Cc1ccccc1)NC(=O)[C@H](CC(N)=O)NC(=O)[C@@H]1CCCN1C(=O)[C@H](CO)NC(=O)[C@H](CO)NC(=O)[C@H](Cc1c[nH]cn1)NC(=O)[C@H](CCCNC(=N)N)NC(=O)[C@H](CC(C)C)NC(=O)[C@H](Cc1ccccc1)NC(=O)[C@H](CCC(=O)O)NC(=O)[C@H](C)NC(=O)[C@H](CC(C)C)NC(=O)[C@H](CCCNC(=N)N)NC(=O)[C@H](CCC(N)=O)NC(=O)[C@@H](NC(=O)[C@H](C)NC(=O)[C@@H]1CSSC[C@H](NC(=O)[C@H](CCCCN)NC(=O)CC[C@H](NC(=O)CC[C@H](NC(=O)CCCCCCCCCCCCCCCCCCC(=O)O)C(=O)O)C(=O)O)C(=O)N[C@@H](CC(N)=O)C(=O)N[C@@H]([C@@H](C)O)C(=O)N[C@@H](C)C(=O)N[C@@H]([C@@H](C)O)C(=O)N1)[C@@H](C)O)C(=O)N1CCC[C@H]1C(=O)N[C@@H](CO)C(=O)N[C@@H](CO)C(=O)N[C@H](C(=O)N[C@@H](CC(N)=O)C(=O)N[C@H](C(=O)NCC(=O)N[C@@H](CO)C(=O)N[C@@H](CC(N)=O)C(=O)N[C@H](C(=O)N1CCC[C@H]1C(N)=O)[C@@H](C)O)C(C)C)[C@@H](C)O, also called compound 14) | 146 | 1.6 | 238 | 196 |
| {C20 diacid-γGlu}-KCNTATCATQRLAEFLRHSSPNFGAIPSSTNVGSETY-NH2 (disulfide 2-7; SMILES CC[C@H](C)[C@H](NC(=O)[C@H](C)NC(=O)CNC(=O)[C@H](Cc1ccccc1)NC(=O)[C@H](CC(N)=O)NC(=O)[C@@H]1CCCN1C(=O)[C@H](CO)NC(=O)[C@H](CO)NC(=O)[C@H](Cc1c[nH]cn1)NC(=O)[C@H](CCCNC(=N)N)NC(=O)[C@H](CC(C)C)NC(=O)[C@H](Cc1ccccc1)NC(=O)[C@H](CCC(=O)O)NC(=O)[C@H](C)NC(=O)[C@H](CC(C)C)NC(=O)[C@H](CCCNC(=N)N)NC(=O)[C@H](CCC(N)=O)NC(=O)[C@@H](NC(=O)[C@H](C)NC(=O)[C@@H]1CSSC[C@H](NC(=O)[C@H](CCCCN)NC(=O)CC[C@H](NC(=O)CCCCCCCCCCCCCCCCCCC(=O)O)C(=O)O)C(=O)N[C@@H](CC(N)=O)C(=O)N[C@@H]([C@@H](C)O)C(=O)N[C@@H](C)C(=O)N[C@@H]([C@@H](C)O)C(=O)N1)[C@@H](C)O)C(=O)N1CCC[C@H]1C(=O)N[C@@H](CO)C(=O)N[C@@H](CO)C(=O)N[C@H](C(=O)N[C@@H](CC(N)=O)C(=O)N[C@H](C(=O)NCC(=O)N[C@@H](CO)C(=O)N[C@@H](CCC(=O)O)C(=O)N[C@H](C(=O)N[C@@H](Cc1ccc(O)cc1)C(N)=O)[C@@H](C)O)C(C)C)[C@@H](C)O, also called compound 22) | 270 | 3.8 | 1030 | 794 |
| K([γGlu-γGlu-C20 diacid])CNTATCATQRLAEFLRHSSPNFGAIPSSTNVGSNTP-NH2 (disulfide 2-7; N-terminus assumed; SMILES CC[C@H](C)[C@H](NC(=O)[C@H](C)NC(=O)CNC(=O)[C@H](Cc1ccccc1)NC(=O)[C@H](CC(N)=O)NC(=O)[C@@H]1CCCN1C(=O)[C@H](CO)NC(=O)[C@H](CO)NC(=O)[C@H](Cc1c[nH]cn1)NC(=O)[C@H](CCCNC(=N)N)NC(=O)[C@H](CC(C)C)NC(=O)[C@H](Cc1ccccc1)NC(=O)[C@H](CCC(=O)O)NC(=O)[C@H](C)NC(=O)[C@H](CC(C)C)NC(=O)[C@H](CCCNC(=N)N)NC(=O)[C@H](CCC(N)=O)NC(=O)[C@@H](NC(=O)[C@H](C)NC(=O)[C@@H]1CSSC[C@H](NC(=O)[C@@H](N)CCCCNC(=O)CC[C@H](NC(=O)CC[C@H](NC(=O)CCCCCCCCCCCCCCCCCCC(=O)O)C(=O)O)C(=O)O)C(=O)N[C@@H](CC(N)=O)C(=O)N[C@@H]([C@@H](C)O)C(=O)N[C@@H](C)C(=O)N[C@@H]([C@@H](C)O)C(=O)N1)[C@@H](C)O)C(=O)N1CCC[C@H]1C(=O)N[C@@H](CO)C(=O)N[C@@H](CO)C(=O)N[C@H](C(=O)N[C@@H](CC(N)=O)C(=O)N[C@H](C(=O)NCC(=O)N[C@@H](CO)C(=O)N[C@@H](CC(N)=O)C(=O)N[C@H](C(=O)N1CCC[C@H]1C(N)=O)[C@@H](C)O)C(C)C)[C@@H](C)O, also called compound 13) | 213 | 2.2 | 470 | 264 |
